Measured values as given in patent US20090304686A1 (UNIVERSOTAIR MEDISCH CENTRUM UTRECHT, published 2009).

What was measured:
[1] = target: hLAIR-1-CD3ζ chimera on 2B4 NFAT-GFP reporter cells (human, UniProt Q6GTX8 22-165); assay: cell-based or functional assay
[2] = target: T1, human LAIR-1 (hLAIR-1a) expressed on cells (human, UniProt Q6GTX8 22-287); assay: adhesion of K562 cells expressing hLAIR-1 to immobilized trimeric peptide
T1 construct: whole, on cells; In the precipitation with collagen I fibrils it stood in cell lysates (transfected K562, PBMC)
T1 sequence (looked up): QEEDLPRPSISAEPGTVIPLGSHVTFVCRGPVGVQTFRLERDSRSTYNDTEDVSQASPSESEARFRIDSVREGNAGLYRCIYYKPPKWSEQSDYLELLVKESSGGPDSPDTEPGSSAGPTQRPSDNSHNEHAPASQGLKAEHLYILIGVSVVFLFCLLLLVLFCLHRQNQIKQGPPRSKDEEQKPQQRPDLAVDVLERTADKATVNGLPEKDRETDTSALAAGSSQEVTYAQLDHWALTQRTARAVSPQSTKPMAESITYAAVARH
From the text: A: K562 cell adhesion assay. […] Percentage of adhering cells relative to input is shown.

B1: Collagen II Toolkit peptide 49 (peptide)
peptide: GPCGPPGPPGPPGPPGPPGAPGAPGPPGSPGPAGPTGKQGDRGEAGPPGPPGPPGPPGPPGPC
modifications: O = hydroxyproline as printed; C-terminal amide (-NH2)
With B1 the “GFP expression of 2B4 NFAT-GFP reporter cells” value (from here on “GFP expression”) [1] was > 10 % of cells GFP-positive.

B2: Collagen III Toolkit peptide 32 (peptide)
peptide: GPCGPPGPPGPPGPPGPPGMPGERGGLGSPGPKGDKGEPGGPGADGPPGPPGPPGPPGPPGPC
modifications: O = hydroxyproline as printed; C-terminal amide (-NH2)
With B2 the “GFP expression” value [1] was > 10 % of cells GFP-positive.

B3: Collagen III Toolkit peptide 51 (peptide)
peptide: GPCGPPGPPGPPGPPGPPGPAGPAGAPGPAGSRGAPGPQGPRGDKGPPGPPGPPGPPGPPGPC
modifications: O = hydroxyproline as printed; C-terminal amide (-NH2)
notes: Homotrimeric triple-helical peptide; also called III-51; collagen III peptide 51
In the case of B3, the “GFP expression” value [1] is reported as > 10 % of cells GFP-positive and the “percentage of adhering cells relative to input” value [2] is reported as greater than 10%.

B4: Collagen III Toolkit peptide 38 (peptide)
peptide: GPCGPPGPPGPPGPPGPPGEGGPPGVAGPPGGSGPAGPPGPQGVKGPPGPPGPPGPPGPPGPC
modifications: O = hydroxyproline as printed; C-terminal amide (-NH2)
notes: Homotrimeric triple-helical peptide; also called III-38; collagen III peptide 38
For B4, the “GFP expression” value [1] was > 10 % of cells GFP-positive and the “percentage of adhering cells relative to input” value [2] was greater than 10%.

B5: Collagen III Toolkit peptide 1 (peptide)
peptide: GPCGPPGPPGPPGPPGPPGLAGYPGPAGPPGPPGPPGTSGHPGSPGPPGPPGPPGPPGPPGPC
modifications: O = hydroxyproline as printed; C-terminal amide (-NH2)
notes: Homotrimeric triple-helical peptide; also called III-1; collagen III peptide 1
With B5 the “GFP expression” value [1] was > 10 % of cells GFP-positive and the “percentage of adhering cells relative to input” value [2] was greater than 10%.

B6: Collagen II Toolkit peptide 30 (peptide)
peptide: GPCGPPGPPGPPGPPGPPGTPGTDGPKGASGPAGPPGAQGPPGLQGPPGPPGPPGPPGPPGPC
modifications: O = hydroxyproline as printed; C-terminal amide (-NH2)
notes: Homotrimeric triple-helical peptide; also called II-30; human collagen II peptide 30
With B6 the “GFP expression” value [1] was > 10 % of cells GFP-positive and the “percentage of adhering cells relative to input” value [2] was greater than 10%.

B7: Collagen III Toolkit peptide 5 (peptide)
peptide: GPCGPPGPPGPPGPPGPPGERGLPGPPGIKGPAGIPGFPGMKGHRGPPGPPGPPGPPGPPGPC
modifications: O = hydroxyproline as printed; C-terminal amide (-NH2)
B7 was tested, and the “GFP expression” value [1] was > 10 % of cells GFP-positive.

B8: Collagen III Toolkit peptide 44 (peptide)
peptide: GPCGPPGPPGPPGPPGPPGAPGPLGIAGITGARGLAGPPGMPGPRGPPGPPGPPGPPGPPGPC
modifications: O = hydroxyproline as printed; C-terminal amide (-NH2)
notes: Homotrimeric triple-helical peptide; also called III-44; collagen III peptide 44
B8 was tested, and the “GFP expression” value [1] was > 10 % of cells GFP-positive and the “percentage of adhering cells relative to input” value [2] was greater than 10%.

B9: Collagen II Toolkit peptide 42 (peptide)
peptide: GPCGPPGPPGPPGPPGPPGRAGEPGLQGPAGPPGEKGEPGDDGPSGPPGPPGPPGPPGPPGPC
modifications: O = hydroxyproline as printed; C-terminal amide (-NH2)
In the case of B9, the “GFP expression” value [1] is reported as > 10 % of cells GFP-positive.

B10: Collagen II Toolkit peptide 1 (peptide)
peptide: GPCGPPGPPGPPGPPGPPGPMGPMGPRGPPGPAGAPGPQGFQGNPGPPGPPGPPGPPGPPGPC
modifications: O = hydroxyproline as printed; C-terminal amide (-NH2)
With B10 the “GFP expression” value [1] was > 10 % of cells GFP-positive.
